This is an account of results in paper PMC4460183, “Catalytic and hydrodynamic properties of styrene monooxygenases from Rhodococcus opacus 1CP are modulated by cofactor binding” (AMB Express, 2015).

Series [1] addresses StyA1 styrene monooxygenase from Rhodococcus opacus 1CP (Rhodococcus opacus 1CP) (UniProt C7ACG0). The series is described as follows: SEC; analytical gel filtration, Superdex 200 HR 10/30, 22°C, 10 mM Tris-HCl pH 7.2, 500 mM NaCl; oxidized holoenzyme, 12.7 µM FAD in buffer and sample.
Series [2] shares this target. Put plainly: SEC; analytical gel filtration, Superdex 200 HR 10/30, 22°C, 10 mM Tris-HCl pH 7.2, 500 mM NaCl; reduced holoenzyme, 12.7 µM FAD and 1 mM sodium dithionite, anaerobic buffer.
The target is the same in series [3]. Put plainly: SEC; analytical gel filtration, Superdex 200 HR 10/30, 22°C, 0.6 mL/min, 10 mM Tris-HCl pH 7.2, 500 mM NaCl; 100 µL of protein (1.95 mg/mL StyA1, 2.17 mg/mL StyA2B, 11.45 mg/mL StyA); apo-enzyme, no FAD.
For another series, the target named is T1, StyA (Rhodococcus opacus, UniProt A0A076JVU4).
T1 construct: full length, 427 residues, 46,580 Da calculated; apo form purified; monomer; P. fluorescens ST StyB as coupling reductase in oxygenase assays
The series is described as follows: HPLC of phenyl vinyl sulfoxide formed. In kind it is biochemical. Particulars: StyB of P. fluorescens ST (threefold excess), FAD, NADH regeneration by formate dehydrogenase, catalase.

The target in series [4] is StyA2B self-sufficient styrene monooxygenase from Rhodococcus opacus 1CP (Rhodococcus opacus 1CP) (UniProt C7ACG1). Put plainly: SEC; analytical gel filtration, Superdex 200 HR 10/30, 22°C, 10 mM Tris-HCl pH 7.2, 500 mM NaCl; oxidized holoenzyme, 12.7 µM FAD in buffer and sample.
Series [5] has the same target. The series is described as follows: SEC; analytical gel filtration, Superdex 200 HR 10/30, 22°C, 10 mM Tris-HCl pH 7.2, 500 mM NaCl; reduced holoenzyme, 12.7 µM FAD and 1 mM sodium dithionite, anaerobic buffer.
Series [6] has the same target. The series is described as follows: SEC; analytical gel filtration, Superdex 200 HR 10/30, 22°C, 0.6 mL/min, 10 mM Tris-HCl pH 7.2, 500 mM NaCl; 100 µL of protein (1.95 mg/mL StyA1, 2.17 mg/mL StyA2B, 11.45 mg/mL StyA); apo-enzyme, no FAD.
The target in a further series is T2, StyA1 (Rhodococcus opacus, UniProt C7ACG0).
T2 construct: N-terminal His10 tag kept, E. coli BL21; apo form purified; monomer-dimer, dimer with reduced FAD; oxygenase assays with P. fluorescens ST StyB as coupling reductase
The series is described as follows: analytical gel filtration, oligomer shift. The format is binding. Particulars: 12.7 µM FAD, no dithionite; 10 mM Tris-HCl pH 7.2, 500 mM NaCl, 22 °C.

Substrate in series [7]: Cc1cc2nc3c(=O)[nH]c(=O)nc-3n(C[C@H](O)[C@H](O)[C@H](O)COP(=O)(O)OP(=O)(O)OC[C@H]3O[C@@H](n4cnc5c(N)ncnc54)[C@H](O)[C@@H]3O)c2cc1C
The series is described as follows: purified protein. In kind it is biochemical, Pseudomonas fluorescens. As to conditions: NADH in excess, 8 mM Tris-HCl pH 7.5, 30 °C.

Substrate in series [8]: NC(=O)C1=CN([C@@H]2O[C@H](COP(=O)(O)OP(=O)(O)OC[C@H]3O[C@@H](n4cnc5c(N)ncnc54)[C@H](O)[C@@H]3O)[C@@H](O)[C@H]2O)C=CC1
Put plainly: purified protein. The format is biochemical, Pseudomonas fluorescens. As to conditions: FAD in excess, 8 mM Tris-HCl pH 7.5, 30 °C.

Series [9] deals with the molecule itself. The series is described as follows: SEC; data not shown; StyB in the presence of the cofactor FAD; method taken from the section on quaternary structure (analytical gel filtration), not given.
Substrate in series [10]: Cc1cc2nc3c(=O)[nH]c(=O)nc-3n(C[C@H](O)[C@H](O)[C@H](O)COP(=O)(O)OP(=O)(O)OC[C@H]3O[C@@H](n4cnc5c(N)ncnc54)[C@H](O)[C@@H]3O)c2cc1C
The series is described as follows: NADH consumption, spectrophotometric, Michaelis-Menten fit. As to conditions: NADH in excess, 8 mM Tris-HCl pH 7.5, 30 °C, read at 320 nm, apparent constant. The format is biochemical, Rhodococcus opacus. From the text:
(§1) NADH consumption, spectrophotometric, Michaelis-Menten fit on StyB-1CP (StyB from Rhodococcus opacus 1CP)

Substrate in series [11]: NC(=O)C1=CN([C@@H]2O[C@H](COP(=O)(O)OP(=O)(O)OC[C@H]3O[C@@H](n4cnc5c(N)ncnc54)[C@H](O)[C@@H]3O)[C@@H](O)[C@H]2O)C=CC1
The series is described as above. The format is biochemical, Rhodococcus opacus. Particulars: FAD in excess, 8 mM Tris-HCl pH 7.5, 30 °C, read at 320 nm, apparent constant.
Excerpt: as §1

Series [12] deals with the molecule itself. The series is described as follows: SEC; analytical gel filtration, Superdex 200 HR 10/30, 22°C, 10 mM Tris-HCl pH 7.2, 500 mM NaCl; oxidized holoenzyme, 12.7 µM FAD in buffer and sample.
Series [13] deals with the molecule itself. The series is described as follows: SEC; analytical gel filtration, Superdex 200 HR 10/30, 22°C, 0.6 mL/min, 10 mM Tris-HCl pH 7.2, 500 mM NaCl; 100 µL of protein (1.95 mg/mL StyA1, 2.17 mg/mL StyA2B, 11.45 mg/mL StyA); apo-enzyme, no FAD.

“And” between values parts separate entries of the source, which are not always exact repeats. Identical values can stand only once.

T2 sequence (C7ACG0 entry or part of it): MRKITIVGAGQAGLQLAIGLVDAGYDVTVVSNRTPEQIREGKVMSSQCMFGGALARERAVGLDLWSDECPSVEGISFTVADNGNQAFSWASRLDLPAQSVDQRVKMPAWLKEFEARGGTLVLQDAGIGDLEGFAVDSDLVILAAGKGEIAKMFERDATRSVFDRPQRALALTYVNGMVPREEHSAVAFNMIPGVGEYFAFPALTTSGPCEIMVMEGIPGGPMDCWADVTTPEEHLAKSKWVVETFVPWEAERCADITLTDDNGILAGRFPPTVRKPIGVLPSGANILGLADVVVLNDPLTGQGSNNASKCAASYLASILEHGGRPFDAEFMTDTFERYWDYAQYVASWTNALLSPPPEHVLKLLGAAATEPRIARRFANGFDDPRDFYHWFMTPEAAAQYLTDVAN

Take “StyA1 styrene monooxygenase from Rhodococcus opacus 1CP (from UniProt C7ACG0 1-406) (enzyme)”: the stoichiometry N in [1], in series [2] and in [3] was 2 throughout.

In the case of `C=CSc1ccccc1` [phenyl vinyl sulfide], at StyA, the “HPLC of phenyl vinyl sulfoxide formed” value is reported as “All three SMO isoforms were found to convert this substrate”.

For the molecule “StyA2B self-sufficient styrene monooxygenase from Rhodococcus opacus 1CP (from UniProt C7ACG1 1-573) (enzyme)”, the stoichiometry N in series [4], in [5] and in series [6] was 2 throughout.

As to `Cc1cc2nc3c(=O)[nH]c(=O)nc-3n(C[C@H](O)[C@H](O)[C@H](O)COP(=O)(O)OP(=O)(O)OC[C@H]3O[C@@H](n4cnc5c(N)ncnc54)[C@H](O)[C@@H]3O)c2cc1C` [FAD], the “analytical gel filtration, oligomer shift” value at StyA1 is recorded as “For holo-StyA1, the equilibrium shifted towards the dimeric form”.

B1: StyB-ST (StyB from P. fluorescens ST) (Pseudomonas fluorescens) (protein)
chain: MTLKKDVAVDIDSTCFRQAVALFATGIAVLSAETEEGEVHGMTVNSFTSISLDPPTVMVSLKSGRMHELLTRGGRFGVSLLGESQKVFSAFFSKRVMDDTPSPAFTIQAGLPTLRDAMAWFECEVESTVQVHDHTLFIARVSACGTPEANAPQPLLFFASRYHGKPLPLN
notes: full length; E. coli BL21
Turning to B1, in “purified protein [7]”, the Km is on record as 2.6 ± 0.4 µM, the kcat was found to be 8.7 ± 0.3 s⁻¹ and the kcat/Km worked out at 3.35e+06 M⁻¹ s⁻¹. For the same molecule, in “purified protein [8]”, the Km stood at 18.9 ± 1.0 µM, the kcat came out at 8.8 ± 0.1 s⁻¹ and the kcat/Km was found to be 466000 M⁻¹ s⁻¹.

B2: StyB flavin reductase from Rhodococcus opacus 1CP (enzyme, UniProt A0A076K0M4 1-177, looked up)
chain: MTRAAEAPPAPEVLSAPVEVAADSTQFRNSVALFATGIAVVTMQDGEGGVHGATINSFTSISLDPPTVMISLKPGYAHELISKSGWYGVSVLSKTQQEHSRYFCGTRDSDWHPQFVAGENVPTLFGSLARFECKVIDTITVNDHTLFLARVARCESEDGSPLMFFASTYHQPALGES
notes: StyB, FAD reductase of the styABCD cluster, Rhodococcus opacus 1CP, 178 amino acid residues, calculated mass 19,053 Da; also called StyB-1CP; source: E. coli BL21, purified (HisTrap FF IMAC), concentrated in the presence of 10 µM FAD
As for B2, the “stoichiometry N” value in series [9] is 2. Also, in series [10], the Km came to 108.3 ± 18.3 µM, the kcat was determined as 32.9 ± 2.3 s⁻¹ and the specificity constant (kcat/Km) came out at 304000 M⁻¹ s⁻¹. In addition, in series [11], the Km is reported as 59.3 ± 4.2 µM, the kcat was determined as 26.9 ± 0.6 s⁻¹ and the kcat/Km was 454000 M⁻¹ s⁻¹.

B3: StyA styrene monooxygenase from Rhodococcus opacus 1CP (styABCD cluster) (enzyme, UniProt A0A076JVU4 1-426, looked up)
chain: MSKRIAIVGAGTAGLHLGLYLNEKGIDATIFTDRRPEEYANIRLLNTVAHHSVTIDREDALGIDHWPNDGYFGHYYYVGIPGMPIRSYGDLAKPSRAVDYRILQPQLMRDFEERGGKIEYRPIRVEDLTVLSDDYDLVVIGTGKGGLGTLFARDEQSSPFTEPQRQLCVGIFKGIAPAETRAVTFCISPGAGEMIEIPTVTFSGDATALVFENHIGSDLEVLAHTRYEDDPRAFLDLMIEKLKQHYPITAERLDEKEFDVANSHLDILQGGVTPTVRHGHVKLDNGKLAVLLGDAHATVDPVLGQGGNMASYAAHVLGEEIAGNEVYDELFCERVDARRAGRVLGATRWTNFMLSNLKELPNHFVEFLGRVMMDRQLADRFTDNFNYPEKQWDIFSSPENMVAWIEANETGAEETERPFAQTGAQS
notes: StyA of the styABCD cluster, Rhodococcus opacus 1CP, 427 amino acid residues, calculated mass 46,580 Da; amplified from genomic DNA with printed primers that hold the start codon (NdeI CATATG) and the stop codon (TCA in the reverse primer); Apparent subunit mass 50 kDa including the His-tag (SDS-PAGE); also called holo-StyA; source: E. coli BL21, purified (HisTrap FF IMAC)
For B3, the “stoichiometry N” value is 2 in series [12]; 2 and 4 in [13].
